{
  "source": "patent US20260078171A1",
  "key": {"[1]": {"molecular_target": "SARS-CoV-2 Beta RBD (SARS-CoV-2)", "assay": "bio-layer interferometry (BLI, Octet), monovalent Fab affinity"}, "[2]": {"molecular_target": "SARS-CoV-2 Delta spike protein (authentic virus / MLV pseudovirus) (SARS-CoV-2)", "assay": "cell-based or functional assay"}, "[3]": {"molecular_target": "SARS-CoV-2 Omicron BA.1 spike protein (authentic virus / MLV pseudovirus) (SARS-CoV-2)", "assay": "cell-based or functional assay"}, "[4]": {"molecular_target": "SARS-CoV-2 Omicron BA.2 spike protein (authentic virus / MLV pseudovirus) (SARS-CoV-2)", "assay": "cell-based or functional assay"}, "[5]": {"molecular_target": "SARS-CoV-2 Omicron BA.4.1 spike protein (authentic virus) (SARS-CoV-2)", "assay": "cell-based or functional assay"}, "[6]": {"molecular_target": "SARS-CoV-2 B.1.617.2 (Delta) spike protein, Monogram pseudovirus (SARS-CoV-2) (UniProt P0DTC2)", "assay": "cell-based or functional assay"}, "[7]": {"molecular_target": "SARS-CoV-2 Beta spike protein (MLV pseudovirus) (SARS-CoV-2)", "assay": "cell-based or functional assay"}, "[8]": {"molecular_target": "SARS-CoV-2 Omicron BA.2.75 spike glycoprotein (lentivirus-based pseudovirus) (SARS-CoV-2)", "assay": "cell-based or functional assay"}, "[9]": {"molecular_target": "SARS-CoV-2 Omicron BA.2.75 spike protein, Monogram pseudovirus (SARS-CoV-2) (UniProt P0DTC2)", "assay": "cell-based or functional assay"}, "[10]": {"molecular_target": "SARS-CoV-2 Omicron BA.5 spike glycoprotein (lentivirus-based pseudovirus) (SARS-CoV-2)", "assay": "cell-based or functional assay"}, "[11]": {"molecular_target": "SARS-CoV-2 Omicron BN.1 spike protein, Monogram pseudovirus (SARS-CoV-2) (UniProt P0DTC2)", "assay": "cell-based or functional assay"}, "[12]": {"molecular_target": "SARS-CoV-2 Omicron XBB spike protein, Monogram pseudovirus (SARS-CoV-2) (UniProt P0DTC2)", "assay": "cell-based or functional assay"}, "[13]": {"molecular_target": "SARS-CoV-2 Omicron XBB.1 spike protein, Monogram pseudovirus (SARS-CoV-2) (UniProt P0DTC2)", "assay": "cell-based or functional assay"}, "[14]": {"molecular_target": "SARS-CoV-2 Omicron XBB.1.5 spike protein, Monogram pseudovirus (SARS-CoV-2) (UniProt P0DTC2)", "assay": "cell-based or functional assay"}},
  "data": [
    {"substance": "ADI-58125 (Fab)", "values": [
      {"measurement": "Kd", "setting": "[1]", "value": 6.4, "unit": "nM"}
    ]},
    {"substance": "ADI-58125 (antibody)", "values": [
      {"measurement": "IC50, authentic virus neutralization", "setting": "[2]", "value": 0.049, "unit": "µg/mL"},
      {"measurement": "IC90, authentic virus neutralization", "setting": "[2]", "value": 0.156, "unit": "µg/mL"},
      {"measurement": "IC50, authentic virus neutralization", "setting": "[3]", "value": "> 5", "unit": "µg/mL"},
      {"measurement": "IC90, authentic virus neutralization", "setting": "[3]", "value": "> 5", "unit": "µg/mL"},
      {"measurement": "IC50, authentic virus neutralization", "setting": "[4]", "value": "> 5", "unit": "µg/mL"},
      {"measurement": "IC90, authentic virus neutralization", "setting": "[4]", "value": "> 5", "unit": "µg/mL"},
      {"measurement": "IC50, authentic virus neutralization", "setting": "[5]", "value": "> 5", "unit": "µg/mL"},
      {"measurement": "IC90, authentic virus neutralization", "setting": "[5]", "value": "> 5", "unit": "µg/mL"}
    ]},
    {"substance": "CoV2-2130 (antibody)", "values": [
      {"measurement": "IC50, authentic virus neutralization", "setting": "[2]", "value": 0.061, "unit": "µg/mL"},
      {"measurement": "IC90, authentic virus neutralization", "setting": "[2]", "value": 0.136, "unit": "µg/mL"},
      {"measurement": "IC50, authentic virus neutralization", "setting": "[3]", "value": "> 5", "unit": "µg/mL"},
      {"measurement": "IC90, authentic virus neutralization", "setting": "[3]", "value": "> 5", "unit": "µg/mL"},
      {"measurement": "IC50, authentic virus neutralization", "setting": "[4]", "value": 0.011, "unit": "µg/mL"},
      {"measurement": "IC90, authentic virus neutralization", "setting": "[4]", "value": 0.037, "unit": "µg/mL"},
      {"measurement": "IC50, authentic virus neutralization", "setting": "[5]", "value": 0.088, "unit": "µg/mL"},
      {"measurement": "IC90, authentic virus neutralization", "setting": "[5]", "value": 0.587, "unit": "µg/mL"}
    ]},
    {"substance": "LY-CoV1404 (antibody)", "values": [
      {"measurement": "IC50, authentic virus neutralization", "setting": "[2]", "value": 0.027, "unit": "µg/mL"},
      {"measurement": "IC90, authentic virus neutralization", "setting": "[2]", "value": 0.096, "unit": "µg/mL"},
      {"measurement": "IC50, authentic virus neutralization", "setting": "[3]", "value": 0.004, "unit": "µg/mL"},
      {"measurement": "IC90, authentic virus neutralization", "setting": "[3]", "value": 0.152, "unit": "µg/mL"},
      {"measurement": "IC50, authentic virus neutralization", "setting": "[4]", "value": 0.01, "unit": "µg/mL"},
      {"measurement": "IC90, authentic virus neutralization", "setting": "[4]", "value": 0.069, "unit": "µg/mL"},
      {"measurement": "IC50, authentic virus neutralization", "setting": "[5]", "value": 0.026, "unit": "µg/mL"},
      {"measurement": "IC90, authentic virus neutralization", "setting": "[5]", "value": 0.1, "unit": "µg/mL"}
    ]},
    {"substance": "VYD222 (antibody)", "values": [
      {"measurement": "IC50, PhenoSense pseudovirus neutralization", "setting": "[6]", "value": 4.2, "unit": "ng/mL"},
      {"measurement": "IC50, MLV-based pseudovirus neutralization", "setting": "[7]", "value": "< 0.1", "unit": "pg/mL"},
      {"measurement": "IC50, MLV-based pseudovirus neutralization", "setting": "[2]", "value": "< 0.1", "unit": "pg/mL"},
      {"measurement": "IC50, authentic virus neutralization", "setting": "[2]", "value": 0.016, "unit": "µg/mL"},
      {"measurement": "IC90, authentic virus neutralization", "setting": "[2]", "value": 0.103, "unit": "µg/mL"},
      {"measurement": "IC50, MLV-based pseudovirus neutralization", "setting": "[3]", "value": "< 0.1", "unit": "pg/mL"},
      {"measurement": "IC50, authentic virus neutralization", "setting": "[3]", "value": 0.026, "unit": "µg/mL"},
      {"measurement": "IC90, authentic virus neutralization", "setting": "[3]", "value": 0.143, "unit": "µg/mL"},
      {"measurement": "IC50, MLV-based pseudovirus neutralization", "setting": "[4]", "value": "< 0.1", "unit": "pg/mL"},
      {"measurement": "IC50, authentic virus neutralization", "setting": "[4]", "value": 0.008, "unit": "µg/mL"},
      {"measurement": "IC90, authentic virus neutralization", "setting": "[4]", "value": 0.231, "unit": "µg/mL"},
      {"measurement": "IC50, lentivirus-based pseudovirus neutralization", "setting": "[8]", "value": 0.1, "unit": "µg/mL"},
      {"measurement": "IC50, PhenoSense pseudovirus neutralization", "setting": "[9]", "value": 1.36, "unit": "µg/mL"},
      {"measurement": "IC50, authentic virus neutralization", "setting": "[5]", "value": 0.041, "unit": "µg/mL"},
      {"measurement": "IC90, authentic virus neutralization", "setting": "[5]", "value": 0.524, "unit": "µg/mL"},
      {"measurement": "IC50, lentivirus-based pseudovirus neutralization", "setting": "[10]", "value": 0.03, "unit": "µg/mL"},
      {"measurement": "IC50, PhenoSense pseudovirus neutralization", "setting": "[11]", "value": 2.11, "unit": "µg/mL"},
      {"measurement": "IC50, PhenoSense pseudovirus neutralization", "setting": "[12]", "value": 0.152, "unit": "µg/mL"},
      {"measurement": "IC50, PhenoSense pseudovirus neutralization", "setting": "[13]", "value": 0.121, "unit": "µg/mL"},
      {"measurement": "IC50, PhenoSense pseudovirus neutralization", "setting": "[14]", "value": 0.081, "unit": "µg/mL"}
    ]},
    {"substance": "VYD223 (antibody)", "values": [
      {"measurement": "IC50, authentic virus neutralization", "setting": "[2]", "value": 0.013, "unit": "µg/mL"},
      {"measurement": "IC90, authentic virus neutralization", "setting": "[2]", "value": 0.06, "unit": "µg/mL"},
      {"measurement": "IC50, authentic virus neutralization", "setting": "[3]", "value": 0.015, "unit": "µg/mL"},
      {"measurement": "IC90, authentic virus neutralization", "setting": "[3]", "value": 0.068, "unit": "µg/mL"},
      {"measurement": "IC50, authentic virus neutralization", "setting": "[4]", "value": 0.016, "unit": "µg/mL"},
      {"measurement": "IC90, authentic virus neutralization", "setting": "[4]", "value": 0.084, "unit": "µg/mL"},
      {"measurement": "IC50, authentic virus neutralization", "setting": "[5]", "value": 0.063, "unit": "µg/mL"},
      {"measurement": "IC90, authentic virus neutralization", "setting": "[5]", "value": 0.437, "unit": "µg/mL"}
    ]},
    {"substance": "VYD224 (antibody)", "values": [
      {"measurement": "IC50, PhenoSense pseudovirus neutralization", "setting": "[6]", "value": 1, "unit": "ng/mL"},
      {"measurement": "IC50, authentic virus neutralization", "setting": "[2]", "value": 0.006, "unit": "µg/mL"},
      {"measurement": "IC90, authentic virus neutralization", "setting": "[2]", "value": 0.014, "unit": "µg/mL"},
      {"measurement": "IC50, authentic virus neutralization", "setting": "[3]", "value": 0.01, "unit": "µg/mL"},
      {"measurement": "IC90, authentic virus neutralization", "setting": "[3]", "value": 0.023, "unit": "µg/mL"},
      {"measurement": "IC50, authentic virus neutralization", "setting": "[4]", "value": 0.016, "unit": "µg/mL"},
      {"measurement": "IC90, authentic virus neutralization", "setting": "[4]", "value": 0.054, "unit": "µg/mL"},
      {"measurement": "IC50, lentivirus-based pseudovirus neutralization", "setting": "[8]", "value": 0.01, "unit": "µg/mL"},
      {"measurement": "IC50, PhenoSense pseudovirus neutralization", "setting": "[9]", "value": 0.004, "unit": "µg/mL"},
      {"measurement": "IC50, authentic virus neutralization", "setting": "[5]", "value": 0.126, "unit": "µg/mL"},
      {"measurement": "IC90, authentic virus neutralization", "setting": "[5]", "value": 0.359, "unit": "µg/mL"},
      {"measurement": "IC50, lentivirus-based pseudovirus neutralization", "setting": "[10]", "value": 0.08, "unit": "µg/mL"},
      {"measurement": "IC50, PhenoSense pseudovirus neutralization", "setting": "[11]", "value": 0.0015, "unit": "µg/mL"},
      {"measurement": "IC50, PhenoSense pseudovirus neutralization", "setting": "[12]", "value": "> 5", "unit": "µg/mL"},
      {"measurement": "IC50, PhenoSense pseudovirus neutralization", "setting": "[13]", "value": "> 5", "unit": "µg/mL"},
      {"measurement": "IC50, PhenoSense pseudovirus neutralization", "setting": "[14]", "value": "> 5", "unit": "µg/mL"}
    ]}
  ]
}
